Assay results as given in PMC10684826.
Like-named read-outs stand apart in the source and are kept apart here.

Columns and labels:
Assay in all cases: EMSA
EcoSSB = EcoSSB (Escherichia coli, UniProt P0AGE0 1-178)
AhoSSB [1] = molecular target: T1, AhoSSB (Acidianus hospitalis W1, UniProt F4B912 1-142)
T1 sequence: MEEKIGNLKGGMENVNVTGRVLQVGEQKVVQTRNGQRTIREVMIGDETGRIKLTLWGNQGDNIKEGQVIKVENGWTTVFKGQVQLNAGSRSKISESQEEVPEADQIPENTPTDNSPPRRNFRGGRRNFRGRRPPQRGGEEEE

SheSSB [2] = molecular target: T2, SheSSB (Staphylothermus hellenicus DSM 12710, UniProt D7D8N7 1-151)
T2 sequence: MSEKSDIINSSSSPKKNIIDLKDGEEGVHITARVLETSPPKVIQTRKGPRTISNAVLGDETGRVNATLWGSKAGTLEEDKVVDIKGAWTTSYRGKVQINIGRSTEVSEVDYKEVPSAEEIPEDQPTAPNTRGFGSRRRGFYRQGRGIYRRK

SacSSB [3] = molecular target: T3, SacSSB (Sulfolobus acidocaldarius DSM 639, UniProt Q4JA43 1-146)
T3 sequence: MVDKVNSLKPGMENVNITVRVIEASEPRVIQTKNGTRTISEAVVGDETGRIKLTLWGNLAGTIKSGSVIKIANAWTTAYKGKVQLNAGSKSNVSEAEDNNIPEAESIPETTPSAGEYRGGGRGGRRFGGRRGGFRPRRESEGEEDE

SisSSB deltaC29 = molecular target: T4, SisSSB deltaC29 (Saccharolobus islandicus REY15A, UniProt F0NBA9 1-119)
T4 sequence: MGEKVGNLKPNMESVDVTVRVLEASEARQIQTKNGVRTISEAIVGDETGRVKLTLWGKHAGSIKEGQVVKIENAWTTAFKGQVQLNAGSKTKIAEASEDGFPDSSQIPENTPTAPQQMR

SisSSB deltaC53 = molecular target: T5, SisSSB deltaC53 (Saccharolobus islandicus REY15A, UniProt F0NBA9 1-95)
T5 sequence: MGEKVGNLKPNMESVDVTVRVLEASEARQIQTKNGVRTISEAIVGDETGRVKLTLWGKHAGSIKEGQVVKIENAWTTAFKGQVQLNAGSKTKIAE

AhoSSB [4] = molecular target: T1, AhoSSB; remark: listed apart in the source
SheSSB [5] = molecular target: T2, SheSSB; remark: listed apart in the source
SacSSB [6] = molecular target: T3, SacSSB; remark: listed apart in the source

Measured: binding result

EcoSSB, sequence (P0AGE0 whole entry): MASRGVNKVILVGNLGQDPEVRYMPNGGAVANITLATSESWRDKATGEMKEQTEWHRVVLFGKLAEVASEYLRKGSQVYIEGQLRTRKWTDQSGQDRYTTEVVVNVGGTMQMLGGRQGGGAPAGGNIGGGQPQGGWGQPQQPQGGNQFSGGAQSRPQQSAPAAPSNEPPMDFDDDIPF

AGGGTTCTTTGTGGCGGCGTCATCTGTGCTTCCCTATCCA (ssDNA) [Fam-ssDNA 40 nt]
not listed: AhoSSB [4] | SheSSB [5] | SacSSB [6]
binds: all other assays above

AGGGUUCUUUGUGGCGGCGUCAUCUGUGCUUCCCUAUCCA (ssRNA) [Fam-ssRNA 40 nt]
binds: SisSSB deltaC29 | SisSSB deltaC53 | AhoSSB [4] | SheSSB [5] | SacSSB [6]
